Measurements from the Immune Epitope Database (IEDB).

Legend:
HLA-A*03:01 [1] = assay: IEDB peptide-MHC binding, purified MHC/competitive/fluorescence; filed as Kd, often an IC50 or EC50 that approximates it; ≥ and ≤ were set here for values at or beyond the usual limits of such assays
HLA-B*58:01 = assay: as above; settings: source organism: Yersinia pseudotuberculosis IP 31758
HLA-A*68:23 = assay: as above; settings: source organism: Yersinia pseudotuberculosis IP 31758
HLA-B*15:42 = assay: as above; settings: source organism: Yersinia pseudotuberculosis IP 31758
HLA-A*01:01 [2] = assay: as above
HLA-C*04:01 = assay: as above; settings: source organism: Yersinia pseudotuberculosis IP 31758
HLA-B*83:01 = assay: as above; settings: source organism: Yersinia pseudotuberculosis IP 31758
HLA-B*15:01 = assay: as above; settings: source organism: Yersinia pseudotuberculosis IP 31758
HLA-B*45:06 = assay: as above; settings: source organism: Yersinia pseudotuberculosis IP 31758
HLA-A*02:05 = assay: IEDB peptide-MHC binding, purified MHC/competitive/radioactivity; filed as Kd, often an IC50 or EC50 that approximates it; ≥ and ≤ were set here for values at or beyond the usual limits of such assays; settings: source organism: Hepatitis C virus (isolate Taiwan)
HLA-A*02:07 = assay: as above; settings: source organism: Hepatitis C virus (isolate Taiwan)
HLA-B*40:02 [3] = assay: IEDB peptide-MHC binding, cellular MHC/competitive/fluorescence; ≥ and ≤ were set here for values at or beyond the usual limits of such assays; settings: source organism: Homo sapiens
HLA-A*02:03 [4] = assay: IEDB peptide-MHC binding, purified MHC/competitive/radioactivity; ≥ and ≤ were set here for values at or beyond the usual limits of such assays; settings: source organism: Hepatitis C virus (isolate H77)
HLA-A*02:02 [5] = assay: as above; settings: source organism: Hepatitis C virus (isolate H77)
HLA-A*02:06 [6] = assay: as above; settings: source organism: Hepatitis C virus (isolate H77)
HLA-A*02:03 [7] = assay: IEDB peptide-MHC binding, purified MHC/competitive/radioactivity; filed as Kd, often an IC50 or EC50 that approximates it; ≥ and ≤ were set here for values at or beyond the usual limits of such assays; settings: source organism: Hepatitis C virus (isolate 1)
HLA-A*03:01 [8] = assay: as above; settings: source organism: Hepatitis C virus (isolate 1)
HLA-A*33:01 = assay: as above; settings: source organism: Hepatitis C virus (isolate 1)
HLA-B*08:01 = assay: as above; settings: source organism: Hepatitis C virus (isolate 1)
HLA-B*40:01 = assay: as above; settings: source organism: Hepatitis C virus (isolate 1)
HLA-B*35:01 = assay: as above; settings: source organism: Hepatitis C virus (isolate 1)
HLA-B*44:03 = assay: as above; settings: source organism: Hepatitis C virus (isolate 1)
HLA-B*40:02 [9] = assay: as above; settings: source organism: Hepatitis C virus (isolate 1)
HLA-A*68:02 [10] = assay: as above; settings: source organism: Hepatitis C virus (isolate 1)
HLA-A*01:01 [11] = assay: as above; settings: source organism: Hepatitis C virus (isolate 1)
HLA-A*68:01 = assay: as above; settings: source organism: Hepatitis C virus (isolate 1)
HLA-B*18:01 = assay: as above; settings: source organism: Hepatitis C virus (isolate 1)
HLA-A*11:01 [12] = assay: as above; settings: source organism: Hepatitis C virus (isolate 1)
HLA-B*54:01 = assay: as above; settings: source organism: Hepatitis C virus (isolate 1)
HLA-A*31:01 [13] = assay: as above; settings: source organism: Hepatitis C virus (isolate 1)
HLA-B*44:02 = assay: as above; settings: source organism: Hepatitis C virus (isolate 1)
HLA-B*07:02 = assay: as above; settings: source organism: Hepatitis C virus (isolate 1)
HLA-A*02:02 [14] = assay: as above; settings: source organism: Hepatitis C virus (isolate 1)
HLA-B*51:01 = assay: as above; settings: source organism: Hepatitis C virus (isolate 1)
HLA-A*02:06 [15] = assay: as above; settings: source organism: Hepatitis C virus (isolate 1)
HLA-B*53:01 = assay: as above; settings: source organism: Hepatitis C virus (isolate 1)
HLA-B*15:17 = assay: IEDB peptide-MHC binding, purified MHC/competitive/fluorescence; filed as Kd, often an IC50 or EC50 that approximates it; ≥ and ≤ were set here for values at or beyond the usual limits of such assays; settings: source organism: Human immunodeficiency virus 1
HLA-A*02:01 = assay: as above; settings: source organism: Human immunodeficiency virus 1
HLA-A*02:03 [16] = assay: as above; settings: source organism: Human immunodeficiency virus 1
HLA-B*08:02 = assay: as above; settings: source organism: Human immunodeficiency virus 1
HLA-A*26:03 = assay: as above; settings: source organism: Human immunodeficiency virus 1
HLA-A*68:02 [17] = assay: as above; settings: source organism: Human immunodeficiency virus 1
HLA-A*11:01 [18] = assay: as above; settings: source organism: Human immunodeficiency virus 1
HLA-A*31:01 [19] = assay: as above; settings: source organism: Human immunodeficiency virus 1
HLA-A*30:01 = assay: as above; settings: source organism: Human immunodeficiency virus 1
HLA-A*69:01 = assay: as above; settings: source organism: Human immunodeficiency virus 1
HLA-A*26:02 = assay: as above; settings: source organism: Human immunodeficiency virus 1
HLA-A*02:06 [20] = assay: as above; settings: source organism: Human immunodeficiency virus 1
HLA-A*24:02 = assay: IEDB peptide-MHC binding, purified MHC/competitive/radioactivity; ≥ and ≤ were set here for values at or beyond the usual limits of such assays; settings: source organism: Homo sapiens
HLA-B*27:05 = assay: as above; settings: source organism: Human papillomavirus 16
[21] = source organism: Yersinia pseudotuberculosis IP 31758
[22] = source organism: Human immunodeficiency virus 1

**Q.** Which Kd (HLA-A*03:01 [1]; [21]) does the source give for RQIRMTSTI here?
**A.** ≥ 20 µM

**Q.** What about the Kd (HLA-B*58:01) of the same sequence?
**A.** 0.617 µM

**Q.** And the Kd (HLA-A*68:23)?
**A.** 0.427 µM

**Q.** And the Kd (HLA-B*15:42)?
**A.** ≥ 5 µM

**Q.** And the Kd (HLA-A*01:01 [2]; [21])?
**A.** 3 µM

**Q.** And the Kd (HLA-C*04:01)?
**A.** ≥ 5 µM

**Q.** What about the Kd (HLA-B*83:01) of the same sequence?
**A.** ≥ 5 µM

**Q.** And the Kd (HLA-B*15:01)?
**A.** 0.163 µM

**Q.** And the Kd (HLA-B*45:06)?
**A.** ≥ 5 µM

**Q.** What does the source list for YLVAYQATV?
**A.** Kd (HLA-A*02:05): 0.0085 µM; Kd (HLA-A*02:07): 2.3 µM

**Q.** KEHSLQVSP was tested. Which IC50 (HLA-B*40:02 [3]) did it give?
**A.** 1.9 µM

**Q.** Which results are given for KLVALGINAV?
**A.** IC50 (HLA-A*02:03 [4]): 0.075 µM; IC50 (HLA-A*02:02 [5]): 0.015 µM; IC50 (HLA-A*02:06 [6]): 0.0037 µM; Kd (HLA-A*02:03 [7]): 0.0111 µM; Kd (HLA-A*03:01 [8]): 16.6 µM; Kd (HLA-A*33:01): ≥ 70 µM; Kd (HLA-B*08:01): ≥ 70 µM; Kd (HLA-B*40:01): ≥ 69.6 µM; Kd (HLA-B*35:01): ≥ 69.9 µM; Kd (HLA-B*44:03): ≥ 70.1 µM; Kd (HLA-B*40:02 [9]): ≥ 70.8 µM; Kd (HLA-A*68:02 [10]): 12.8 µM; Kd (HLA-A*01:01 [11]): 9.01 µM; Kd (HLA-A*68:01): ≥ 70.2 µM; Kd (HLA-B*18:01): ≥ 70.5 µM; Kd (HLA-A*11:01 [12]): ≥ 69.8 µM; Kd (HLA-B*54:01): 19.2 µM; Kd (HLA-A*31:01 [13]): 13.6 µM; Kd (HLA-B*44:02): ≥ 70.2 µM; Kd (HLA-B*07:02): 2.17 µM; Kd (HLA-A*02:02 [14]): 0.0827 µM; Kd (HLA-B*51:01): ≥ 47 µM; Kd (HLA-A*02:06 [15]): 0.00394 µM; Kd (HLA-B*53:01): ≥ 69.9 µM

**Q.** With VLYCVHQEI as the sequence, how does the Kd (HLA-B*15:17) read?
**A.** 0.345 µM

**Q.** And the Kd (HLA-A*02:01)?
**A.** 0.007 µM

**Q.** And the Kd (HLA-A*02:03 [16])?
**A.** 0.0088 µM

**Q.** And the Kd (HLA-B*08:02)?
**A.** ≥ 20 µM

**Q.** And the Kd (HLA-A*03:01 [1]; [22])?
**A.** ≥ 20 µM

**Q.** What about the Kd (HLA-A*26:03) of the same sequence?
**A.** ≥ 20 µM

**Q.** And the Kd (HLA-A*68:02 [17])?
**A.** 0.233 µM

**Q.** What about the Kd (HLA-A*01:01 [2]; [22]) of the same sequence?
**A.** ≥ 20 µM

**Q.** And the Kd (HLA-A*11:01 [18])?
**A.** ≥ 20 µM

**Q.** And the Kd (HLA-A*31:01 [19])?
**A.** ≥ 20 µM

**Q.** What about the Kd (HLA-A*30:01) of the same sequence?
**A.** 12.3 µM

**Q.** What about the Kd (HLA-A*69:01) of the same sequence?
**A.** 0.824 µM

**Q.** What about the Kd (HLA-A*26:02) of the same sequence?
**A.** ≥ 20 µM

**Q.** What about the Kd (HLA-A*02:06 [20]) of the same sequence?
**A.** 0.00405 µM

**Q.** How did the IC50 (HLA-A*24:02) turn out when KYAGESFPGI was run?
**A.** 0.838 µM

**Q.** For YRHYCYSL, which IC50 (HLA-B*27:05) is on record?
**A.** 0.012 µM
